Measurements as given in the PETadex activity labels (doi:10.1016/j.ijbiomac.2024.137732).

Key:
gfPET [1] = experiment: Proxy for plastic degradation [Released monomer concentration (HPLC/LC-MS) (TPA+MHET+BHET)]
gfPET [2] = experiment: Proxy for plastic degradation [Released monomer concentration (HPLC/LC-MS) (MHET+BHET+TPA)]; conditions: pH 9

B1: unnamed (protein)
chain: ASEQSTKNITNVTTESDVSVYRDLMLVAGKYVFYPADFETTTKKYPVVTWANGSWCPIQTYLPIIYGLVKAGYIVVADTDLLTDDGKSTVDSVSYIIKQNKNKNSMFYKRINTKQIGSTGHSLGGQAAVNASAKDSRIKAIVSLAGKSVADEAAKVTVPALYLSGTLDMIVPSKDYVYPSYKASKGPAAYASFNNMVHFGVWIAPGNYVKYTVAWFDVYLKGDKSKLSMFKKGGDLSTDDFWINYESKNL
Proxy for plastic degradation (gfPET [1]; pH 6): 2.5 µM
Proxy for plastic degradation (gfPET [1]; pH 7): 5 µM
Proxy for plastic degradation (gfPET [1]; pH 8): 10 µM
Proxy for plastic degradation (gfPET [1]; pH 9): 15 µM
Proxy for plastic degradation (gfPET [1]; pH 9, 25 °C): 4 µM
Proxy for plastic degradation (gfPET [1]; pH 9, 30 °C): 6.5 µM
Proxy for plastic degradation (gfPET [1]; pH 9, 35 °C): 12 µM
Proxy for plastic degradation (gfPET [1]; pH 9, 37 °C): 16 µM
Proxy for plastic degradation (gfPET [1]; pH 9, 40 °C): 20 µM
Proxy for plastic degradation (gfPET [1]; pH 9, 45 °C): 11 µM
Proxy for plastic degradation (gfPET [1]; pH 10): 25 µM
Proxy for plastic degradation (gfPET [1]; pH 11): 50 µM
Proxy for plastic degradation (gfPET [2]): 17.5 µM

B2: unnamed (protein)
chain: QTIEMAQSQIDKLAKIETDSLASYADSYTYDEEYFAENEPATIYYPKNLEGKVPAVIVVHGFNCKQKFLQKIPQHLSSHGFICITYTALDQKRPFQWPPGLMAAYEILRGESMRPDSPIYDHVDLDAVALVGHSMGGAGVLHTAMMPYPNGLRGKIKTVVGLNPYNGGPLMAEVGGGANDNLGDDLSHLDIPTMIVTGSYDIVAFPWKSFAFYNSLRGPAKHAFLSIDRMDHADWYFIPSEPKYPILRAILYSWLRAYLADDSEYRDYFVDRPGSSFDKYLKPLLSNTPNPLTRGGESFPPYVLSEEEDPLGTTN
Proxy for plastic degradation (gfPET [2]): 2.4 µM

B3: unnamed (protein)
chain: QELQEDWWRTGKYAIEDIADPVYSLDEEYMRDTPNLYLPKGKTGKLPVVIVIHGWGGTKEQMQPTAQLLASHGMLVLNYTAVDQNQPFQWLDGLVAAYTLLEGENRRPGSKIYNRVDFQRIGLLGHSMGAAGVLHIAAMEKPNGLRGKIKTVVSMMPYHGTTSTFTDNIAGGKDKLGCDISSTPNATLIISAELDPTNEPIGGYEFYQTLKRNKRVFFSLKGAKHIDWMKERDKKYSVAMPVITAWMLTYLCGETQYESYFREGGHYFEKWVRETLKGNVKVGRGEFPAFEIKEP
Proxy for plastic degradation (gfPET [2]): 4 µM

B4: unnamed (protein)
chain: NADQFVQFESAAVKPTQFQERNARARGEAVNAVPGTPLQGYLTRPQGEGPFPAIVILHGCAGIHPSVKETWPERLASWGYVVLVVDSFSTRGIQNTCNNLLVDRVYDAYGALEFLSNYSFVDPKRIAVMGFSAGGIATLEAVQFGGAERLMEHKFKAAVAYYPICKAANGDMAVPTLVLVGDLDDWSPAEQCRTMMKQRSGAGSPVQLNVYKGAHHAFDAPEFKTGFEAYGHWIEYNGIAADQSVSDVHAFLRGVFGN
Proxy for plastic degradation (gfPET [2]): 3.8 µM

B5: unnamed (protein)
chain: QELQENWWSNGKYAIEDVADPVYSFDEEYMKDVPNIYLPIGKTGKLPVVIVVHGWAAYKEQMHDTAQLLASHGMLVLVYTAMDQNQPFQWLDGIIAAYTLLEGENRRPGSKIHNRVDFQRIGLLGHSMGGTGVLFSAAMEKPNGLRGKIKTVVSLMPYHGTTNFISDAVAGGKDKLGCDVSATPNATLIISGEVDEVNEPIGGYEFYQTLTQNKRVFFSMKGTHHNDWRNKEGKESENYPIVMPVVSSWMLAYLCGERQYESFFKEGGLYFEKWIRPTLKGNVKVGRGEFPAFEIKEP
Proxy for plastic degradation (gfPET [2]): 4 µM
